Source: the supplement of paper PMC10126150
± gives the standard deviation of the averaged measurements.

Test system: ATP
Assay: switch fluorescence ratio, 500 uM ATP over buffer (Cy3 cluster intensity, sum of 5 cycles each) (fold (ratio)); higher = stronger signal-on switching upon ATP binding; sequences stand for … in TCGTCGGCAGCGTCAGATGTGTATAAGAGACAGTTTTTTTTTTTTTTTTTTTTTTTTT…TC
Conditions: aptamer strand: ATP DNA aptamer (quencher-CACCTGGGGGAGTATTGCGGAGGAAGG + anchor), 100 nM annealed; ATP concentration: 500 uM
Summary of the method: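 Per cluster, summed Cy3 intensity from the target cycles was divided by that from the buffer cycles to give the fluorescence ratio, then averaged per switch-domain sequence. Clusters outside 100-1000 RFU were excluded. The Cy3-labelled switching-strand clusters, on a modified Illumina MiSeq flow-cell, were annealed to 100 nM quencher-labelled ATP aptamer and imaged in selection buffer, then after 15 min with 500 uM ATP at 22 °C, for five cycles with NaOH stripping and re-annealing between them.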
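Also: ATP exposure 15 min at 22 °C before imaging.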

| Sequence | switch fluorescence ratio |
| --- | --- |
| AGTGGGGACG | 1.031 ± 0.01 |
| AGTGGGGATC | 1.03 ± 0.035 |
| AGTGGGGGAT | 0.988 ± 0.028 |
| AGTGGGGGTC | 1.02 ± 0.021 |
| AGTGGGTAGA | 1.04 ± 0.049 |
| AGTGGGTTAG | 1.016 ± 0.0012 |
| AGTGGTACTA | 0.991 ± 0.038 |
| AGTGGTGGAG | 1 ± 0.04 |
| AGTGGTGGTA | 0.998 ± 0.018 |
| AGTGGTTATT | 0.989 ± 0.032 |
| AGTGTAATGT | 0.975 ± 0.059 |
| AGTGTATCCC | 1.01 ± 0.034 |
| AGTGTCGTGC | 1 ± 0.025 |
| AGTGTCGTTT | 0.991 ± 0.02 |
| AGTGTCTTTG | 0.954 ± 0.011 |
| AGTGTGGGCG | 1.04 ± 0.02 |
| AGTGTGGGGG | 1.01 ± 0.029 |
| AGTGTGGTGC | 0.9778 ± 0.0073 |
| AGTGTTACG | 1.01 ± 0.04 |
| AGTGTTATTT | 0.993 ± 0.011 |
| AGTGTTCGCT | 0.9732 ± 0.0052 |
| AGTGTTCTCG | 0.983 ± 0.017 |

| Sequence | switch fluorescence ratio |
| --- | --- |
| AGTGTTGATG | 0.975 ± 0.051 |
| AGTGTTGCGG | 0.952 ± 0.021 |
| AGTGTTGGCC | 1.023 ± 0.0089 |
| AGTGTTGGG | 0.9768 ± 0.0046 |
| AGTGTTGTCA | 0.97 ± 0.043 |
| AGTGTTGTGC | 1.01 ± 0.033 |
| AGTGTTGTTG | 0.9727 ± 0.0095 |
| AGTGTTTAAA | 0.969 ± 0.025 |
| AGTGTTTCAG | 0.956 ± 0.018 |
| AGTGTTTGCC | 1.036 ± 0.0035 |
| AGTGTTTGGC | 1.01 ± 0.022 |
| AGTGTTTTAA | 0.994 ± 0.033 |
| AGTTAAAGTG | 1.03 ± 0.057 |
| AGTTAATGCT | 0.9856 ± 0.0026 |
| AGTTAGACTT | 1.02 ± 0.064 |
| AGTTAGAGTG | 0.976 ± 0.016 |
| AGTTAGGAAG | 0.973 ± 0.011 |
| AGTTAGGGGC | 0.995 ± 0.053 |
| AGTTATCGAA | 1.009 ± 0.0036 |
| AGTTATTAAT | 1.06 ± 0.054 |
| AGTTATTGAG | 0.9991 ± 0.0043 |
| AGTTATTGCC | 1.01 ± 0.029 |

| Sequence | switch fluorescence ratio |
| --- | --- |
| AGTTATTTTT | 0.991 ± 0.011 |
| AGTTCCGTTG | 1.028 ± 0.0097 |
| AGTTCGGCGT | 0.999 ± 0.029 |
| AGTTCGGTGC | 0.9799 ± 0.0012 |
| AGTTCGTTA | 0.9861 ± 0.0056 |
| AGTTGAAGGG | 0.973 ± 0.018 |
| AGTTGAATTG | 0.994 ± 0.022 |
| AGTTGAGATG | 0.971 ± 0.033 |
| AGTTGAGGAA | 1 ± 0.026 |
| AGTTGATGGG | 0.978 ± 0.049 |
| AGTTGCCCGG | 1.006 ± 0.0068 |
| AGTTGCGTCG | 0.997 ± 0.031 |
| AGTTGCTGCT | 0.995 ± 0.02 |
| AGTTGCTTGG | 1.01 ± 0.041 |
| AGTTGGAATT | 0.979 ± 0.012 |
| AGTTGGACAG | 1.02 ± 0.012 |
| AGTTGGAGGC | 0.9476 ± 0.0088 |
| AGTTGGATC | 1.02 ± 0.015 |
| AGTTGGCGGC | 1.02 ± 0.039 |
| AGTTGGCTTG | 1.03 ± 0.03 |
| AGTTGGGGTA | 1 ± 0.013 |
| AGTTGGGGTT | 1.035 ± 0.0033 |

| Sequence | switch fluorescence ratio |
| --- | --- |
| AGTTGGGTCG | 1.004 ± 0.0056 |
| AGTTGGTGG | 1.02 ± 0.024 |
| AGTTGGTTAC | 1.01 ± 0.023 |
| AGTTGGTTAT | 0.974 ± 0.022 |
| AGTTGTAAGG | 0.962 ± 0.014 |
| AGTTGTACAA | 1.012 ± 0.01 |
| AGTTGTGGGC | 0.968 ± 0.018 |
| AGTTGTGTAT | 1.01 ± 0.051 |
| AGTTGTTAGT | 0.969 ± 0.021 |
| AGTTGTTTGG | 1 ± 0.025 |
| AGTTTAGGGG | 0.9796 ± 0.0016 |
| AGTTTAGTGA | 0.996 ± 0.044 |
| AGTTTATAGA | 1.01 ± 0.023 |
| AGTTTATGCA | 1 ± 0.017 |
| AGTTTATGCG | 0.979 ± 0.021 |
| AGTTTATTC | 1.01 ± 0.061 |
| AGTTTCCTGC | 1.01 ± 0.015 |
| AGTTTCGCTC | 0.987 ± 0.063 |
| AGTTTCGGCG | 1 ± 0.02 |
